Reference: paper PMC2806001

Molecular target: T1, Peroxiredoxin 1 (Prx1) WT, recombinant (mouse), P35700
T1 chain: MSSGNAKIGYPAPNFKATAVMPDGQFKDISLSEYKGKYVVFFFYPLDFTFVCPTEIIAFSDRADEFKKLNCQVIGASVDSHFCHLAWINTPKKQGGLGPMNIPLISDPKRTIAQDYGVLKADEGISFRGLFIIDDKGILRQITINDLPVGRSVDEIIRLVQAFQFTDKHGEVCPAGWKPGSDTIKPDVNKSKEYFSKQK
Assay: native gel or EMSA; BN-PAGE of purified recombinant proteins incubated for 1 hour at room temperature (20 μg p66CH2CB with 40 μg Prx1 WT or 20 μg Prx1-Cys83Ser); bands cut out and separated in a second, denaturing SDS-PAGE dimension
Conditions: remark: other sources report otherwise

stoichiometry N: 10
B1: Peroxiredoxin 1 (Prx1) WT, recombinant, P35700 1-199 (enzyme)
chain: MSSGNAKIGYPAPNFKATAVMPDGQFKDISLSEYKGKYVVFFFYPLDFTFVCPTEIIAFSDRADEFKKLNCQVIGASVDSHFCHLAWINTPKKQGGLGPMNIPLISDPKRTIAQDYGVLKADEGISFRGLFIIDDKGILRQITINDLPVGRSVDEIIRLVQAFQFTDKHGEVCPAGWKPGSDTIKPDVNKSKEYFSKQK
